# Non-standard residues stand in square brackets, D forms with d. No end group written: not given here. Aib = CC(C)(N)C(=O)O
# T1: human GIP receptor (human, UniProt P48546 22-466)
# T1 sequence (looked up): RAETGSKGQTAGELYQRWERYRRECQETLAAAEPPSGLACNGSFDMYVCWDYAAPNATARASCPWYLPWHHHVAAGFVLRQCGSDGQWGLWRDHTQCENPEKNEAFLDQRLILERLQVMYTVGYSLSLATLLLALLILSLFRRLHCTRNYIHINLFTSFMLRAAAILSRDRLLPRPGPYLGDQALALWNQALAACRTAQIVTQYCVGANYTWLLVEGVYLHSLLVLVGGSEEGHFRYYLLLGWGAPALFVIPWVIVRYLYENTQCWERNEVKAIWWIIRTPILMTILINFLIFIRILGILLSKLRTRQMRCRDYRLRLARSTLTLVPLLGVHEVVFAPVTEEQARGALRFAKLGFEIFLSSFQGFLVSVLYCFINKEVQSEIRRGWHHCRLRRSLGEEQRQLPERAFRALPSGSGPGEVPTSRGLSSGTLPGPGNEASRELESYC
# B1: exendin-4 derivative SEQ ID NO: 23 (comparison compound, non-functionalized Lys in position 14) (peptide)
# peptide: H[Aib]QGTFTSDLSKQKDEQRAKLFIEWL[Aib]AGGPSSGAPPPS-NH2
# modifications: N-terminus assumed
# SMILES: CC[C@H](C)[C@H](NC(=O)[C@H](Cc1ccccc1)NC(=O)[C@H](CC(C)C)NC(=O)[C@H](CCCCN)NC(=O)[C@H](C)NC(=O)[C@H](CCCNC(=N)N)NC(=O)[C@H](CCC(N)=O)NC(=O)[C@H](CCC(=O)O)NC(=O)[C@H](CC(=O)O)NC(=O)[C@H](CCCCN)NC(=O)[C@H](CCC(N)=O)NC(=O)[C@H](CCCCN)NC(=O)[C@H](CO)NC(=O)[C@H](CC(C)C)NC(=O)[C@H](CC(=O)O)NC(=O)[C@H](CO)NC(=O)[C@@H](NC(=O)[C@H](Cc1ccccc1)NC(=O)[C@@H](NC(=O)CNC(=O)[C@H](CCC(N)=O)NC(=O)C(C)(C)NC(=O)[C@@H](N)Cc1c[nH]cn1)[C@@H](C)O)[C@@H](C)O)C(=O)N[C@@H](CCC(=O)O)C(=O)N[C@@H](Cc1c[nH]c2ccccc12)C(=O)N[C@@H](CC(C)C)C(=O)NC(C)(C)C(=O)N[C@@H](C)C(=O)NCC(=O)NCC(=O)N1CCC[C@H]1C(=O)N[C@@H](CO)C(=O)N[C@@H](CO)C(=O)NCC(=O)N[C@@H](C)C(=O)N1CCC[C@H]1C(=O)N1CCC[C@H]1C(=O)N1CCC[C@H]1C(=O)N[C@@H](CO)C(N)=O
# Columns and labels:
# Test in all cases: cell-based or functional assay
# [1] = target: T1, human GIP receptor
# [2] = target: human GLP-1 receptor (human, UniProt P43220 24-463)
# [3] = target: human glucagon receptor (human, UniProt P47871 26-477)
# human glucagon receptor, sequence (P47871 26-477): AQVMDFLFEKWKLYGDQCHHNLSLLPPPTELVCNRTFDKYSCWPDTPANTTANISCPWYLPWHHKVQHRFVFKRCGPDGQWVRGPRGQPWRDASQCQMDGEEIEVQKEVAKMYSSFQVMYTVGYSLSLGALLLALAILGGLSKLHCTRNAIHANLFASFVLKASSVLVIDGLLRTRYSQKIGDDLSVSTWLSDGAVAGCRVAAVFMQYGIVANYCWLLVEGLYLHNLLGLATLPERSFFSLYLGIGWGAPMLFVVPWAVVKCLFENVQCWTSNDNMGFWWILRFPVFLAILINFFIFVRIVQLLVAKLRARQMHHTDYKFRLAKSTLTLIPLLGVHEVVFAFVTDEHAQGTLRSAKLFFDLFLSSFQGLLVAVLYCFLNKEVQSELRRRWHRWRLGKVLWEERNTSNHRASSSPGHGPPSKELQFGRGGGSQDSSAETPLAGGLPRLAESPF
binder,measurement,setting,value
B1,"EC50 hGIP-1 (cAMP formation, GIP receptor)",[1],177 nM
same,EC50 hGLP-1R (cAMP formation),[2],0.0525 nM
same,EC50 hGlucagon-R (cAMP formation),[3],42.9 nM
